The text below walks through data of the DeepSol protein solubility set.

The data set is described as follows: soluble on expression in E. coli; label from the status in PepcDB or PDB records.
Consider “MGSDKIHHHHHHMKTLSIVWAVVGLMLIGGCDQTPQAQSTQSKSMANVVGTTSANQDDLAFTPIVPGYKFEFPRDHLAHNNFRQEWWYLTANLTTETGEQLGAQWTQFRVALKPTDLQTIAPQVTDATPKSESTWATQQLYLAHSALTSSNAHLAHEKWSRRHSEFAEVKLDPYQIRLDNWHWQSETNALFPATLTVENPDFSYQLKLNSQAPLQYQGANGYSLKSRDGQVASYYYSQPFIEISGEINRNGKMERVTGQGWLDREWSSQFLTKTQQGWDWFALRLNDGSTLMLFQLRDQSPAESAKNAPISAFYSARRMFADGTGRNINSTDNPNDIQMTPLQWQHTVNGDYPVSWQVKIPSENIDITITPLNPNSAMPLSTPYWEGPVQLSGSHTGTGYMELTGY”, for which the “soluble on expression in E. coli” value is “not soluble”. For “MGSDKIHHHHHHMKTQYFSDVDETVITTTLSNGLRLQVVPRPAYHKSYAIMTTDYGSIDTQFAPDGKQMVTYPAGIAHFLEHKLFEKEDHDAFDLFGETGASANAFTSATKTSFLFSTTTQLTKNLQILLDFVQTPFFSKASVAKEQGIIGSEIQMYQDDPGWRGYAGLLENLFPNHPAHVDVAGTVASIAQITPEMLYTIHRVFYQPSNMTLIVVGNIDADAIMAFVAANQAAKQFPAPQAIVRGVHADLQTDDIVPYRQLEMPISRPKTLVGIKGQVAIPMTAEGWRYQLTIRLLLEVLFGDSSQLYQDWYDRGLIDDSFDFDFTNQRSFSYGLVGGDTDDPHALSDAIKHVLLNAATQPDLTRDRVALIKRASLGKYYAGLNGLNGVANQLSALSFGQASLFDFPEILSSITLADLQAMIDQVFQAKALTVLDMIPEAD” the value was “not soluble”; for “MGSDKIHHHHHHMKTRDRIVHASLELFNLNGEPGITTNHIAAHLGMSPGNLYYHFRNKEDIIRSIFDLYQQHLEKGFQPYENKQVDMALLMGYFDALFYTLWQFRFMYANLVIILGRDEELKQKYLGIQQQVLARSSNILQQLKKDKVLDIADDEITPLADTIRMIAGFWISNQLTYSGAANITKSSLYEGLLRVLMLFKAYSTSDSFETFKHLEQHYRTLALEDDQ”, “not soluble”. Take “MGSDKIHHHHHHMKTSKKWIAHFEANALHQRINWDLFPAITEAETASVLSSLQAWQLGETSDGAHLIHASTLYASHIGDLDYIDAVKLFIKEEQKHGNNLGRYLDVIDKPRIKKDWGDSLFRKIRYFNTNMEIWTLAVITVESAAQVFYQCLKNATECTLLRQICTDILIDEAYHIDFQTERMTILFNKKSVLSRCLSRIMYPVFFFSTSLLVWSAHKKLFKAGGIDFKKYMNKMKYKYFKTLHRIALVCSRKSTLIHSALH”: the “soluble on expression in E. coli” value was “not soluble”. Turning to “MGSDKIHHHHHHMKTSQLIRKIQEKIDEAMSRLNDLESMEIKTEEYLDTFLALVNNTYKKAEIYNTLVDQWNLLMKQGDEIKRSIEEFKPEYVHHLTEMMKYDGINLLYLRENEHLRAIGIDEIAARTFQEFLKEEELAERSEAFNQAVRKTREQIQQYHMFHYYVSLTDNELKVDENYRLAGNYYRYSIDFFDKNFPYKSIGISRKLENVPELLEKFFRLREKLEGEDPEGDRVRKTLERLYSLSSFDTVEEFNAIIDEWTDLYEAYKQEDPFKTNVLSYSYINKDGRTVQKTYPTYDFLRWLSQRNRKNQEYILNNYLRRITDDPTREGYEIRDPSVVLENRLVEATIKALPNYKSGIMSEIDSLKKMSRMKRKRKEEEIQKKIMTDPFAAVGAKVPEEIKYWLLRRLDVTHPDLYEEWNRITSELQAYLEEVVKQ”, the “soluble on expression in E. coli” value was “not soluble”. With “MGSDKIHHHHHHMKVAYVIGGLPFGGVESWLLDLARHVSKTSDFECRVFNVSGTGVKMPEYISSGVDVVCAGNSLDSIATHRIDTVLRLRSQLVEYAPDIIHTLHFSGDYCGRLASIGLGVPVVTHLRNIKCERKLRRRLANKLLSFFTDMYLSVSRAVADMVADDHNIAKRPSRVIYNAVDPQKLAVEPHDLTAMYGVSGRIVVGVGRYVGQKNFDLLLRALRLVLDEGHDISVVLVGEGGERPHLERLIRELSLEGHAVLTGYRQDVPRFLRASYALAMPSDFEGLPITHLEAMFCGLPAIVSRHVPSLEIAREASLVCKRSPESIAQCIIRLLEDEKLHSTLSNTGSRIASEHTMDLYIKTLKGIYDELASRGKEI” the entry was “not soluble”.

For “MGSDKIHHHHHHMKVFVIGAGLMGRGIAIAIASKHEVVLQDVSEKALEAAREQIPEELLSKIEFTTTLEKVKDCDIVMEAVFEDLNTKVEVLREVERLTNAPLCSNTSVISVDDIAERLDSPSRFLGVHWMNPPHVMPLVEIVISRFTDSKTVAFVEGFLRELGKEVVVCKGQSLVNRFNAAVLSEASRMIEEGVRAEDVDRVWKHHLGLLYTLFGPLGNLDYIGLDVAYYASLYLYKRFGDEKFKPPEWLQEKIKKGEVGVKAGKGIYEYGPKAYEERVERLKKLLRFLGLE”, the “soluble on expression in E. coli” value was “soluble”.

As to “MGSDKIHHHHHHMKVLLYLEAENYLRKSGIGRAIKHQAKALSLVGQHFTTNPRETYDLVHLNTYGLKSWLLMIKAQKAGKKVIMHGHSTEEDFRNSFIFSNLLSPWFKKYLCHFYNKADAIITPTLYSKSLIESYGVKSPIFAVSNGIDLEQYGADPKKEAAFRRYFDIKEGEKVVMGAGLFFLRKGIDDFVKVAQAMPDVRFIWFGETNKWVIPAQVRQMVNGNHPKNLIFPGYIKGDVYEGAMTGADAFFFPSREETEGIVVLEALASRQHLVLRDIPVYYGWVDQSSAELATDIPGFIEALKKVFSGASNKVEAGYKVAQSRRLETVGHALVDVYKKVMEL”, the “soluble on expression in E. coli” value is given as “not soluble”. For “MGSDKIHHHHHHMKVLNKPLEGVKVIDLTYFVAGPGTSKILADWGADVIKVEPSFGDPGRKTGATMTMPIDDYNNPFYSTYNSNKRGLSINLKSETGIEIMDKLLSEANVFVSSYRTGALKRLGLDYESLSKKHPHLIWGQINGFGDFGPAKDNAGFDTVAFWARSGAMLDIAEKDTSPINPPIAFGDATTSCSLSGGICAALYQQAKTGKGQKVMASLFGQAIWNASSLLASTQFSDEYPKTRKNAISPVINSYRCKDGKWIFLSILEHERYFEALCRLFGREDLIKEEKFASSVESKKNATELINILDGEFAKFTQNEMVEKLTAADIAHEKIQHVNDVVTDEQAIANNYIYEHTSKNGNKTMLASTPVKFGNIEVNMTCDAPLIGEHSDEILRELGYSDSDIEALIESGIVTMNKEACEIC” the value was “not soluble”; for “MGSDKIHHHHHHMKVTFGQQTTKVKQLADLLSQEISMGKYKSDCTLPSINKLSREYQVSRDTVFKAFIDLKDRGIIDSTPGKGYYVTNKLTNILLLLDEYSPFKYSLYNSFIKKLSINYKVDLLFHQYNERLFNTILRESIGRYNKYIVMNFDNEKLSPHLYKIDSSKLLLLDFGKFDKKDYSYVCQDFDDSFYHALAALKEHLRKYQRLVLLFPEDIKHPRSSCQYFNCFCQDYHIDSAIVENTDRIQVRKGEVYIAIRQIEVVNIIKQSRTTGLKCGEDFGLIAYNDTPAYEVIDQGITVLSINWEELGRKAAEFVLTGQEIRTYLPTEVHLRNSI”, “not soluble”.

Take “MGSDKIHHHHHHMKVWPVKHSPLLRQPERFIARSELQALIRNVTQNLVNIKDESGQFLLRLDDGRVIDTKGWAGWEWTHGVGLYGIYQYYQQTGDIEMRDIIDRWFADRFAEGATTKNVNTMAPFLTLAYRFEETGRMAYLPWLESWAEWAMHEMPRTEQGGMQHMTLAEENHQQMWDDTLMMTVLPLAKIGKLLNRPQYVEEATYQFLLHVQNLMDRETGLWFHGWNYEGRHNFARARWARGNSWLTMVIPDFLELVDLPEGNAVRRYLITVLDAQIAALAECQDDSGLWHTLLDDPHSYLEASATAGFAYGILKAVRKRYVGQHYAGVAEKAIRGIVQNISPQGELLQTSFGTGMGSDLDFYRQIPLTSMPYGQAMAILCLTEYLRKYF”: the “soluble on expression in E. coli” value is recorded as “not soluble”. As to “MGSDKIHHHHHHMLAENLKSLYLDEWNRYVGHEFVRRMEHGDLPLENFKFYLVQDSLYVEEMLRAVMRSTELMPNDMAIRILSSVVLGRDKGMETHAFLEKELGVEKSSRMTMTTYSYTRHLRYSSTIGWPQFLAAWIPCMWGYSEIGKTVLNSPNRYYRTWAEFYASKEYADRVSVILEAMDRFNGDITEIKDYFLISLKFEQMFWQAAFDMEKPI”, the “soluble on expression in E. coli” value is recorded as “not soluble”. For “MGSDKIHHHHHHMLFRASRSDMSNLTNCITNESVAVTADKKPVIGRIHSFESCGTVDGPGIRFITFFQGCLMRCLYCHNRDTWDTHGGKEITVEDLMKEVVTYRHFMNASGGGVTASGGEAILQAEFVRDWFRACKKEGIHTCLDTNGFVRRYDPVIDELLDVTDLVMLDLKQMNDEIHQNLVGVSNHRTLEFAQYLSKKNVKVWIRYVVVPGWSDDDDSAHRLGEFTRDMGNVEKIELLPYHELGKHKWVAMGEEYKLDGVKPPKKETMERVKGILEQYGHKVMY” the value was “not soluble”; for “MGSDKIHHHHHHMLGKGVVDYTREGSILSAEQRRFYEKNGYLLIRNCVPQYELNRFRQRFQDICEKKVKAPENMTVMKDISIAKSEFKDGEKAITKIQDFADDPVLFEYCKYPGVVDVVKDLIGNPKSNLMAMHTMLINKPPDNGKLTSRHPMHQDLQYFPFRPADFICCAWTAMEKITRANGCLVVVPGTHKGVLLPHEYPKWEGGVNKAYHGIQDYDTSTPRIHVEMEPGDTVFFHPILIHGSGANRTEGFRKAISCHYANDDLCRYVNVEGTTQETLAEEIIEIAKKRLTRYGLDPNTVTLDFADIWRVRAREVNGRRSNL”, “not soluble”. For “MGSDKIHHHHHHMLGQRIKSLRKAKKLTQSDVADGIMTKSMLSMIENEKATPSLPALQSIAHRLHVSIDALLIDPRAVEMKQMIEKINSTASGYYAEGQIATMLEPYLEPAINSYWQGQIYYEYGSALRFSDTEKGLHYFDLAEDVFQQLGLRDEQIKVQISKVYFLFFLRRYEEAYRKIDGMMIFQDVPLAHETFLDYQMLQAIRVSVINDNWSQSIVFLREGIRYMREKGVYSDVSNYHRLLALFLSLEEDYEAAEFELEKLRHFFLFTEATALDQILVDLTKGSIAVHREDYAGIREARERLIEVEIEACLHYIGYFEVYLCLWNDSKEELTFDLPSAVSKIWRNAHLWRAGGEYDHAMMLYALAFAMQAGVGLDRQAEVEELTTQLSPGHFKQKIEQTLARLT” the value was “not soluble”; for “MGSDKIHHHHHHMLKKVSRLDYFTLQVFIGLVELKSGSAVAERLRTTQSKVSRCLTCLREVLEDELFIRQQYGFEPNQVAVTIYPMVKTILEQYDKIVAATIDKGAEPYQLSVATYEQWSLMAMNCVHNTCHCIEGGVSINIQPWTDKIHQRLCQGKVDCSISTEPINHPMVNNFKLGDITHFFIVARRGHPILSSDAPLTQMFNYHIALVNTHLQEQEPHPIEVYAKARHIEIRVALKSPSLRMVVDHVSHSEDIALLSSAMSMAYFENRDDVDYLDISKIWLQTTELETQSYYLHCHKGIKPELTHCLRRVLTEKLHEMQAHCDQVAQENTRDLPTL”, “not soluble”. As for “MGSDKIHHHHHHMLKSLLLTPINLAVKPFPAAKARLDAAKIVLKRWVKLRHFISDLLHAKSFMFWSAQDTSYAKLSSELIFQYHKLEKGLCMAGPRRFFGRDPVIATCRLVKRWSGAGLPSNDPVFLGAIETLRAYRDRLAVTPPPPEHATQIWSLLNECLSLAPPTPSLTTPRPYQPSAGTAATFDLLCAQRRSVRAYTTDVVPISLIHEAIATAQLSPSACNRQPWRLHIYRDPQRTKHLLELQNGNAGFGHQLTTLLVVCADSRTFFDATERNEPYVDAGLFVMSLLLALQSRGLASCCLNWCVSPDTDQKGHDRGDIPSNEKIIMYLAVGYADAQAMVPRSPRRNLETVVTLHEQ”, the “soluble on expression in E. coli” value is recorded as “not soluble”.
